Columns and labels:
[1] = target: T1, glucocorticoid receptor (GR) (Homo sapiens, UniProt P04150); experiment: Mammalian cell (Huh-7) based peptide/glucocorticoid receptor interaction assay, luciferase; details: all ligands (agonists, partial agonists, and antagonists)
T1 construct: in the yeast based system using full-length receptor; expressed in transfected cells; host or cells: yeast
T1 sequence (P04150 1-777): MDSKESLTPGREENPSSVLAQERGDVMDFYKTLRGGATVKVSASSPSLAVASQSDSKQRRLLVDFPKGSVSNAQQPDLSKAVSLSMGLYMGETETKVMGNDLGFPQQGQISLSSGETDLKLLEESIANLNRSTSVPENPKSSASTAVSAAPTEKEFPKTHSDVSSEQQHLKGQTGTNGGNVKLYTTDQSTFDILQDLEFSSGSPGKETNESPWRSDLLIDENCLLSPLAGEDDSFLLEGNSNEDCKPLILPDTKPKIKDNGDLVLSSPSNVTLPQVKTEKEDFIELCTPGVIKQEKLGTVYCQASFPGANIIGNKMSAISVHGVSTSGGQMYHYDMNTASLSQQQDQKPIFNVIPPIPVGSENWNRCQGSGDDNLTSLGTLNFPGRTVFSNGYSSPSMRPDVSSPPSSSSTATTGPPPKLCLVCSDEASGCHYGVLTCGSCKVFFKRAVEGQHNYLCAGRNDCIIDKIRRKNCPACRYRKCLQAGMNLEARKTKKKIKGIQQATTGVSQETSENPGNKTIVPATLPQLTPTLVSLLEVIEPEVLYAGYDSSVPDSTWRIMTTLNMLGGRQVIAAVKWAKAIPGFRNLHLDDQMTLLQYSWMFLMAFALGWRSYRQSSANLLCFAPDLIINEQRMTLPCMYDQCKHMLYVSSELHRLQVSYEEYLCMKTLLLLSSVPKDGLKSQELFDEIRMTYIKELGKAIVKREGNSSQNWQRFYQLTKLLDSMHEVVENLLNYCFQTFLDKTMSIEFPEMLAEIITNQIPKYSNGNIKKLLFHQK
Text: (§1) We have performed a limited amount of in vivo screenings for peptides to GR in the yeast based system using full-length receptor and either dexamethasone or medroxyprogesterone acetate as ligands. We have a single peptide sequence that we have followed up on based on its specificity profile in yeast. This peptide was isolated on MPA liganded GR, and is termed GRMPA. Its sequence is as follows: […] (SEQ ID NO:268).
We have isolated numerous peptides using phage display to the GR ligand binding domain and have formatted cell based assays in mammalian cells for screening large compound sets. We have formatted the assay as stated above for 96-well plates and for 384-well plates. To format the assay to 384-well plates the number of cells per well were scaled down to 5,000 Huh-7 cells per well. Similar ratios of DNA constructs and lipection reagents were used in both assays for transfections prior to seeding the cells into the assay plates. We have also carried out a screen of a 60,000 compound set with one of the phage display isolated peptides in this mammalian cell based format. This peptide interacts with the glucocorticoid receptor in the presence of both agonists (e.g. fluticasone propionate and dexamethasone) and antagonists (RU486). For the compound screen cells were transfected in suspension with DNA constructs as described above prior to seeding 5,000 cells per well. […]

[2] = target: T1, glucocorticoid receptor (GR); experiment: Yeast-based two-hybrid test of peptide interaction with full-length glucocorticoid receptor; assay type: cell-based
Text: as §1

For EFVARYGQLLGWRHPCS [GRMPA], the “Interaction with GR in mammalian cells in the presence of ligands” value [1] was “interacted in the presence of all ligands”, the “Interaction with GR in yeast in the presence of full agonists” value ([2]; fluticasone propionate and dexamethasone) was “not full agonists” and the “Interaction with GR in yeast in the presence of partial agonists and antagonists” value ([2]; partial agonists MPA, cortivazol, deoxycorticosterone, antagonist RU486) was “interacted”.
